In patent publication US20150128304A1 (UNIVERSITY OF TOKYO, published 2015):

Molecular target: T1, DREB2A full-length fused to a YFP fragment (BiFC construct in pBI221) (Arabidopsis thaliana, UniProt O82132 1-335)
T1 construct: domain: full-length; Transiently expressed in Arabidopsis protoplasts, MG132 added to stabilise DREB2A; not shown: N-terminal or C-terminal half of YFP
Test: BiFC (split YFP), transient expression in Arabidopsis protoplasts
Procedure: Transient expression analysis using protoplasts from Arabidopsis thaliana mesophyll cells was conducted in accordance with the method of Yoo et al. [Yoo et al., Nat. Protoc., Vol. 2, pp. 1565-1572 ([…])]. To offer a brief explanation, the gene was introduced into the protoplast; after standing for 14 hours, MG132, a proteasome inhibitor, was added to make a final concentration of 50 μM to stabilize the DREB2A in the plant. After standing for another 4 hours, the YFP fluorescence was examined.
Specifically, two plasmids containing DREB2A and Arabidopsis thaliana NF-YC10 were produced by amplifying full-length cDNA of DREB2A and full-length cDNA of Arabidopsis thaliana NF-YC10 by PCR and attaching each to either pBI221 [Qin et al., Plant Cell, Vol. 20, pp. 1693-1707 (2008)] which is an expression vector containing cDNA encoding the N terminal side or C terminal side of YFP, and a transient expression analysis study of both plasmids was conducted. Furthermore, one transferred from Feng Qin Ph.D. (Japan International Research Center for Agricultural Sciences, Japan) was used as the DREB2A full-length cDNA-ligated pBI221 plasmid. Full-length cDNA of Arabidopsis thaliana NF-YC10 was produced by amplification by PCR using the following primer pair and introduction at the XbaI/ClaI site of the above expression vector.

T1 sequence (O82132 whole entry, the tested form may be a part): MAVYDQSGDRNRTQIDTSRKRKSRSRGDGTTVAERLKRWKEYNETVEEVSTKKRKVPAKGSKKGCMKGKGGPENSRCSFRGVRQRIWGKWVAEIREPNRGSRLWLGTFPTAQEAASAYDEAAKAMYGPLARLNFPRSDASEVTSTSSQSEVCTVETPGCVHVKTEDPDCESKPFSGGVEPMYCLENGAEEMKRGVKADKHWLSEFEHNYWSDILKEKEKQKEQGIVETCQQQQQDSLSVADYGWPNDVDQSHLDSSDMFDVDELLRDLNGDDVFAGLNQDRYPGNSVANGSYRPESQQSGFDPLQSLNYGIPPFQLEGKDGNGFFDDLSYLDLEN

B1: Arabidopsis thaliana NF-YC10 full-length fused to a YFP fragment (BiFC construct in pBI221) (other)
chain: MVSSKKPKEKKARSDVVVNKASGRSKRSSGSRTKKTSNKVNIVKKKPEIYEISESSSSDSVEEAIRGDEAKKSNGVVSKRGNGKSVGIPTKTSKNREEDDGGAEDAKIKFPMNRIRRIMRSDNSAPQIMQDAVFLVNKATEMFIERFSEEAYDSSVKDKKKFIHYKHLSSVVSNDQRYEFLADSVPEKLKAEAALEEWERGMTDAG
notes: Transiently expressed in Arabidopsis thaliana mesophyll protoplasts; not shown: N-terminal or C-terminal half of YFP
  binding result: binds
